According to PMC11446282:

Tested on: B55α interactors
Assay: MS analysis of B55α WT, V228A, I284A, S287A and D340A immunopurifications
Assay type: binding, human
Details: log2 ratio of interactor abundance, 4 replicates each, normalised to bait B55α; for log2_ratio_D340_WT: B55α D340A vs WT immunopurification; for log2_ratio S287_WT: B55α S287A vs WT immunopurification; for log2_ratio I284_WT: B55α I284A vs WT immunopurification; for log2_ratio V228_WT: B55α V228A vs WT immunopurification
Protocol: Standard cloning techniques were used throughout. Point mutations were introduced by whole plasmid polymerase chain reaction (PCR). All constructs were fully sequenced. Synthetic DNA was purchased from GeneArt, Life Technologies and cloned into pcDNA5/FRT/TO (Invitrogen) expression vector containing YFP, resulting in the indicated YFP fusion proteins. These constructs were transiently transfected into HeLa cells 24 hours before harvesting cells. Cells were lysed in lysis buffer [50 mM tris-HCl (pH 7.5), 50 mM NaCl, 1 mM EDTA, 1 mM […], and 0.1% NP-40]. Complexes were immunoprecipitated at 4°C in lysis buffer with green fluorescent protein (GFP)–Trap (ChromoTek) and washed in lysis buffer. Precipitated protein complexes were washed three times in lysis buffer, eluted in 2× SDS sample buffer, and subjected to Western blotting or MS as indicated.
Pull-downs were analyzed on a Q-Exactive Plus quadrupole or Fusion Orbitrap Lumos mass spectrometer (Thermo Fisher Scientific) equipped with Easy-nLC 1000 or […] (Thermo Fisher Scientific) and nanospray source (Thermo Fisher Scientific).
Static modifications included carbamidomethylcysteine, and variable modifications included oxidized methionine and STY phosphorylation. Searches were filtered using orthogonal measures including mass measurement accuracy (±3 parts per million), Xcorr for charges from +2 to +4, and dCn targeting a <1% false discovery rate at the peptide level. Quantification of LC-MS/MS spectra was performed using MassChroQ ([57]) and the iBAQ method ([58]). All data were analyzed using R 4.3.0. Missing values were imputed from a normal distribution. […] In each dataset, the abundance of the protein of interest was normalized to be equal across all samples. Statistical analyses were done using a two-tailed Student’s t test.

B1: ACOT8_HUMAN (protein, UniProt O14734 1-319, looked up)
Acyl-coenzyme A thioesterase 8: MSSPQAPEDGQGCGDRGDPPGDLRSVLVTTVLNLEPLDEDLFRGRHYWVPAKRLFGGQIVGQALVAAAKSVSEDVHVHSLHCYFVRAGDPKLPVLYQVERTRTGSSFSVRSVKAVQHGKPIFICQASFQQAQPSPMQHQFSMPTVPPPEELLDCETLIDQYLRDPNLQKRYPLALNRIAAQEVPIEIKPVNPSPLSQLQRMEPKQMFWVRARGYIGEGDMKMHCCVAAYISDYAFLGTALLPHQWQHKVHFMVSLDHSMWFHAPFRADHWMLYECESPWAGGSRGLVHGRLWRQDGVLAVTCAQEGVIRVKPQVSESKL
log2_ratio_D340_WT: -0.23
log2_ratio S287_WT: 0.94

B2: RBM7_HUMAN (protein, UniProt Q9Y580 2-266, looked up)
RNA-binding protein 7: GAAAAEADRTLFVGNLETKVTEELLFELFHQAGPVIKVKIPKDKDGKPKQFAFVNFKHEVSVPYAMNLLNGIKLYGRPIKIQFRSGSSHAPQDVSLSYPQHHVGNSSPTSTSPSRYERTMDNMTSSAQIIQRSFSSPENFQRQAVMNSALRQMSYGGKFGSSPLDQSGFSPSVQSHSHSFNQSSSSQWRQGTPSSQRKVRMNSYPYLADRHYSREQRYTDHGSDHHYRGKRDDFFYEDRNHDDWSHDYDNRRDSSRDGKWRSSRH
log2_ratio_D340_WT: -4.64
log2_ratio I284_WT: -3.46
log2_ratio S287_WT: 0.85
log2_ratio V228_WT: -3.26

B3: AMOL2_HUMAN (protein, UniProt Q9Y2J4 1-779, looked up)
Angiomotin-like protein 2: MRTLEDSSGTVLHRLIQEQLRYGNLTETRTLLAIQQQALRGGAGTGGTGSPQASLEILAPEDSQVLQQATRQEPQGQEHQGGENHLAENTLYRLCPQPSKGEELPTYEEAKAHSQYYAAQQAGTRPHAGDRDPRGAPGGSRRQDEALRELRHGHVRSLSERLLQLSLERNGARAPSHMSSSHSFPQLARNQQGPPLRGPPAEGPESRGPPPQYPHVVLAHETTTAVTDPRYRARGSPHFQHAEVRILQAQVPPVFLQQQQQYQYLQQSQEHPPPPHPAALGHGPLSSLSPPAVEGPVSAQASSATSGSAHLAQMEAVLRENARLQRDNERLQRELESSAEKAGRIEKLESEIQRLSEAHESLTRASSKREALEKTMRNKMDSEMRRLQDFNRDLRERLESANRRLASKTQEAQAGSQDMVAKLLAQSYEQQQEQEKLEREMALLRGAIEDQRRRAELLEQALGNAQGRAARAEEELRKKQAYVEKVERLQQALGQLQAACEKREQLELRLRTRLEQELKALRAQQRQAGAPGGSSGSGGSPELSALRLSEQLREKEEQILALEADMTKWEQKYLEERAMRQFAMDAAATAAAQRDTTLIRHSPQPSPSSSFNEGLLTGGHRHQEMESRLKVLHAQILEKDAVIKVLQQRSRRDPGKAIQGSLRPAKSVPSVFAAAAAGTQGWQGLSSSERQTADAPARLTTDRAPTEEPVVTAPPAAHAKHGSRDGSTQTEGPPDSTSTCLPPEPDSLLGCSSSQRAASLDSVATSRVQDLSDMVEILI
log2_ratio_D340_WT: 2.17
log2_ratio I284_WT: 3.49
log2_ratio S287_WT: 2.56

B4: TBCD4_HUMAN (protein, UniProt O60343 1-1298, looked up)
TBC1 domain family member 4: MEPPSCIQDEPFPHPLEPEPGVSAQPGPGKPSDKRFRLWYVGGSCLDHRTTLPMLPWLMAEIRRRSQKPEAGGCGAPAAREVILVLSAPFLRCVPAPGAGASGGTSPSATQPNPAVFIFEHKAQHISRFIHNSHDLTYFAYLIKAQPDDPESQMACHVFRATDPSQVPDVISSIRQLSKAAMKEDAKPSKDNEDAFYNSQKFEVLYCGKVTVTHKKAPSSLIDDCMEKFSLHEQQRLKIQGEQRGPDPGEDLADLEVVVPGSPGDCLPEEADGTDTHLGLPAGASQPALTSSRVCFPERILEDSGFDEQQEFRSRCSSVTGVQRRVHEGSQKSQPRRRHASAPSHVQPSDSEKNRTMLFQVGRFEINLISPDTKSVVLEKNFKDISSCSQGIKHVDHFGFICRESPEPGLSQYICYVFQCASESLVDEVMLTLKQAFSTAAALQSAKTQIKLCEACPMHSLHKLCERIEGLYPPRAKLVIQRHLSSLTDNEQADIFERVQKMKPVSDQEENELVILHLRQLCEAKQKTHVHIGEGPSTISNSTIPENATSSGRFKLDILKNKAKRSLTSSLENIFSRGANRMRGRLGSVDSFERSNSLASEKDYSPGDSPPGTPPASPPSSAWQTFPEEDSDSPQFRRRAHTFSHPPSSTKRKLNLQDGRAQGVRSPLLRQSSSEQCSNLSSVRRMYKESNSSSSLPSLHTSFSAPSFTAPSFLKSFYQNSGRLSPQYENEIRQDTASESSDGEGRKRTSSTCSNESLSVGGTSVTPRRISWRQRIFLRVASPMNKSPSAMQQQDGLDRNELLPLSPLSPTMEEEPLVVFLSGEDDPEKIEERKKSKELRSLWRKAIHQQILLLRMEKENQKLEASRDELQSRKVKLDYEEVGACQKEVLITWDKKLLNCRAKIRCDMEDIHTLLKEGVPKSRRGEIWQFLALQYRLRHRLPNKQQPPDISYKELLKQLTAQQHAILVDLGRTFPTHPYFSVQLGPGQLSLFNLLKAYSLLDKEVGYCQGISFVAGVLLLHMSEEQAFEMLKFLMYDLGFRKQYRPDMMSLQIQMYQLSRLLHDYHRDLYNHLEENEISPSLYAAPWFLTLFASQFSLGFVARVFDIIFLQGTEVIFKVALSLLSSQETLIMECESFENIVEFLKNTLPDMNTSEMEKIITQVFEMDISKQLHAYEVEYHVLQDELQESSYSCEDSETLEKLERANSQLKRQNMDLLEKLQVAHTKIQALESNLENLLTRETKMKSLIRTLEQEKMAYQKTVEQLRKLLPADALVNCDLLLRDLNCNPNNKAKIGNKP
log2_ratio_D340_WT: -3.17
log2_ratio I284_WT: -2.61
log2_ratio S287_WT: -1.57
log2_ratio V228_WT: -1.50

B5: PPME1_HUMAN (protein, UniProt Q9Y570 2-386, looked up)
Protein phosphatase …: SALEKSMHLGRLPSRPPLPGSGGSQSGAKMRMGPGRKRDFSPVPWSQYFESMEDVEVENETGKDTFRVYKSGSEGPVLLLLHGGGHSALSWAVFTAAIISRVQCRIVALDLRSHGETKVKNPEDLSAETMAKDVGNVVEAMYGDLPPPIMLIGHSMGGAIAVHTASSNLVPSLLGLCMIDVVEGTAMDALNSMQNFLRGRPKTFKSLENAIEWSVKSGQIRNLESARVSMVGQVKQCEGITSPEGSKSIVEGIIEEEEEDEEGSESISKRKKEDDMETKKDHPYTWRIELAKTEKYWDGWFRGLSNLFLSCPIPKLLLLAGVDRLDKDLTIGQMQGKFQMQVLPQCGHAVHEDAPDKVAEAVATFLIRHRFAEPIGGFQCVFPGC
log2_ratio_D340_WT: -3.73
log2_ratio I284_WT: -7.04
log2_ratio S287_WT: -10.17
log2_ratio V228_WT: -9.33

B6: SIK2_HUMAN (protein, UniProt Q9H0K1 1-926, looked up)
Serine/threonine-protein …: MVMADGPRHLQRGPVRVGFYDIEGTLGKGNFAVVKLGRHRITKTEVAIKIIDKSQLDAVNLEKIYREVQIMKMLDHPHIIKLYQVMETKSMLYLVTEYAKNGEIFDYLANHGRLNESEARRKFWQILSAVDYCHGRKIVHRDLKAENLLLDNNMNIKIADFGFGNFFKSGELLATWCGSPPYAAPEVFEGQQYEGPQLDIWSMGVVLYVLVCGALPFDGPTLPILRQRVLEGRFRIPYFMSEDCEHLIRRMLVLDPSKRLTIAQIKEHKWMLIEVPVQRPVLYPQEQENEPSIGEFNEQVLRLMHSLGIDQQKTIESLQNKSYNHFAAIYFLLVERLKSHRSSFPVEQRLDGRQRRPSTIAEQTVAKAQTVGLPVTMHSPNMRLLRSALLPQASNVEAFSFPASGCQAEAAFMEEECVDTPKVNGCLLDPVPPVLVRKGCQSLPSNMMETSIDEGLETEGEAEEDPAHAFEAFQSTRSGQRRHTLSEVTNQLVVMPGAGKIFSMNDSPSLDSVDSEYDMGSVQRDLNFLEDNPSLKDIMLANQPSPRMTSPFISLRPTNPAMQALSSQKREVHNRSPVSFREGRRASDTSLTQGIVAFRQHLQNLARTKGILELNKVQLLYEQIGPEADPNLAPAAPQLQDLASSCPQEEVSQQQESVSTLPASVHPQLSPRQSLETQYLQHRLQKPSLLSKAQNTCQLYCKEPPRSLEQQLQEHRLQQKRLFLQKQSQLQAYFNQMQIAESSYPQPSQQLPLPRQETPPPSQQAPPFSLTQPLSPVLEPSSEQMQYSPFLSQYQEMQLQPLPSTSGPRAAPPLPTQLQQQQPPPPPPPPPPRQPGAAPAPLQFSYQTCELPSAASPAPDYPTPCQYPVDGAQQSDLTGPDCPRSPGLQEAPSSYDPLALSELPGLFDCEMLDAVDPQHNGYVLVN
log2_ratio_D340_WT: 2.13
log2_ratio I284_WT: -0.65
log2_ratio S287_WT: -1.90
log2_ratio V228_WT: -3.24
